Results published in publication PMC8498639, “3D Domain Swapping Dimerization of the Receiver Domain of Cytokinin Receptor CRE1 From Arabidopsis thaliana and Medicago truncatula” (Frontiers in Plant Science, 2021).
Where two headings read alike, the source gives them in different places. Blank lines part the entries; values can stand above or below the molecule they belong to.

Legend:
[1] = biological target: MtHPt1 (histidine-containing phosphotransfer protein 1 of Medicago truncatula) with N-terminal His6-MBP fusion (Medicago truncatula); assay: BLI; His6-MBP-MtHPt1 (104 nM) immobilised on Ni-NTA sensors; MtCRE1-IC at 2.5, 5, 10, 20 nM; SEC buffer (25 mM HEPES pH 7.5, 50 mM NaCl, 100 mM KCl, 1 mM TCEP) with 10% Kinetic Buffer, with 0.5 mM ATP and 2 mM MgCl2; 25°C; global 1:1 fit
Sequence of MtHPt1 (histidine-containing phosphotransfer protein 1 of Medicago truncatula) with N-terminal His6-MBP fusion (Medicago truncatula) (main, as listed by the source): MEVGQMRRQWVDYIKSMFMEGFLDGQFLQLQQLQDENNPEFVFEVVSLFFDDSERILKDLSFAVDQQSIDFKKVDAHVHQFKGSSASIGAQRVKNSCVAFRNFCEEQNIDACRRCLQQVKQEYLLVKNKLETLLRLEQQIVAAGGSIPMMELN

[2] = biological target: MtHPt1 (histidine-containing phosphotransfer protein 1 of Medicago truncatula) with N-terminal His6-MBP fusion (Medicago truncatula); assay: as above; remark: listed apart in the source
[3] = biological target: the molecule itself; assay: crystal structure; MtCRE1-REC-Ca, 2.5 Å, space group P3(1)21, one subunit in the asymmetric unit, dimer by a crystallographic twofold; Ca2+ bound
[4] = biological target: the molecule itself; assay: crystal structure; AtCRE1-REC-K, 2.15 Å, space group P2(1)2(1)2, two subunits in the asymmetric unit; K+ bound
[5] = biological target: the molecule itself; assay: native gel or EMSA; Native-PAGE of AtCRE1-REC compared with monomeric PR-10 proteins of similar calculated pI

Kd [1]: 12 nM | Kd [2]: 12 to 54 nM
Molecule: MtCRE1-IC (intracellular domain of Medicago truncatula CRE1, Ile352-Ser1003) (from UniProt G7LCC3 352-1003) (domain or fragment)

B1: MtCRE1-REC (receiver domain of cytokinin receptor CRE1 from Medicago truncatula) (domain or fragment, UniProt G7LCC3 856-994, looked up)
chain: SLLFGKKILVVDDNVVNRRVAAGALKNFGADVKCADSGKAALEMLQFPHKFDACFMDIQMPEMDGFEATRRIREMERTANEETNSECGERKSEFHLPILAMTADVIHATYEECLKCGMDGYVSKPFEEENLYQAVAKFF
notes: Made by proteolysis, not cloned as a domain; residues 936-948 are missing in the map; also called MtCRE1-REC-Ca; source: recombinant MtCRE1-IC from E. coli, limited proteolysis with thermolysin, purified (Superdex 75)
binding result [3]: binds

B2: AtCRE1-REC, C-terminally truncated receiver domain Leu918-Phe1048 (Arabidopsis thaliana CRE1/AHK4) (domain or fragment)
chain: SNALLTGKKILVVDDNIVNRRVAAGALKKFGAEVVCAESGQVALGLLQIPHTFDACFMDIQMPQMDGFEATRQIRMMEKETKEKTNLEWHLPILAMTADVIHATYEECLKSGMDGYVSKPFEEENLYKSVAKSF
notes: cloning linker at the N-terminus (vector pMCSG68); Ser-Asn-Ala is printed for the longer construct from the same vector, Asn916-Ala917 of the linker are named for this one; AHK4/CRE1/WOL, Arabidopsis thaliana, receiver domain with a 9-residue C-terminal truncation, Leu918-Phe1048; numbers count on: UniProt Q9C5U0-2; also called AtCRE1-REC-K; source: Magic E. coli strain, purified (Ni-NTA, TEV, …)
binding result [4]: binds

B3: AtCRE1-REC, complete receiver domain Leu918-Ser1057 (Arabidopsis thaliana CRE1/AHK4) (domain or fragment)
chain: SNALLTGKKILVVDDNIVNRRVAAGALKKFGAEVVCAESGQVALGLLQIPHTFDACFMDIQMPQMDGFEATRQIRMMEKETKEKTNLEWHLPILAMTADVIHATYEECLKSGMDGYVSKPFEEENLYKSVAKSFKPNPISPSS
notes: Ser-Asn-Ala cloning artifact at the N-terminus (vector pMCSG68); AHK4/CRE1/WOL, Arabidopsis thaliana, receiver domain Leu918-Ser1057; numbers count on: UniProt Q9C5U0-2; also called AtCRE1-REC-Mg; source: E. coli BL21 Gold, purified (Ni-NTA, TEV, Superdex75)
stoichiometry N [5]: 2
